Experimental data: PMC8761896

Columns and labels:
BG505-SOSIP = BG505-SOSIP (UniProt Q2N0S6)
VRC01gl Fab with G107aL = assay: dynamic light scattering
[1] = biological target: VRC01gl Fab with comL ('VQ' insertion at 103aL and 103bL, L104VL, E105DL); assay: dynamic light scattering

Row | Substance | Kd (BG505-SOSIP) | koff (BG505-SOSIP) | kon (BG505-SOSIP) | stoichiometry N (VRC01gl Fab with G107aL) | stoichiometry N [1]
1 | 3BNC131 Fab H:Q39L | 21.2 nM | 0.00095 s⁻¹ | 44800 M⁻¹ s⁻¹ | – | –
2 | N6 Fab L:H38Q | 0.0781 nM | 6.04e-06 s⁻¹ | 76800 M⁻¹ s⁻¹ | – | –
3 | VRC01gl Fab with G107aL | – | – | – | 2 | –
4 | VRC01gl Fab with comL ('VQ' insertion at 103aL and 103bL, L104VL, E105DL) | – | – | – | – | 4
